Data taken from the supplement of paper PMC12042874.
± gives the uncertainty stated by the source.

Test: amyloid nucleation score (Sup35N fusion, yeast selection) (log enrichment); library NNK2; higher = more nucleation; inactive = no reads after selection
Procedure, shortened: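 Sup35N was fused to peptides of 20 random codons and expressed in psi-negative yeast, which were induced with 100 μM copper sulfate for 24 hours and then grown on medium lacking adenine and uracil for 7 days at 30°C. Plasmid inserts from input and output were sequenced on Illumina. The nucleation score is the DiMSum log enrichment of output over input reads, centred on the mode score of non-aggregating sequences. Sequences with under 100 input reads were left out, and random libraries had three technical output replicates.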

Compared with ILRYSFCRMLFAPRVTLIRF, ILSLIYGA is lower in amyloid nucleation score: 1.74 ± 0.25 for the first, -0.084 ± 0.54 for the second.

Compared with ILTWVAHILLP, ILVMKFNSWLADEDRVRSVI is lower in amyloid nucleation score: 3.72 ± 0.072 for the first, 1.21 ± 0.27 for the second.

First: ILWNYIYDKSFGITPDGFV
Second: ILYGGSPSLYVYAYTKN
The amyloid nucleation score of the first is lower: -0.398 ± 1 for the first, 4.35 ± 0.11 for the second.

First: ILYVACSNMRCPILFMAGA
Second: IMEYAPLYFIMF
The amyloid nucleation score of the first is lower: 2.12 ± 0.12 for the first, 4.16 ± 0.069 for the second.

Compared with IMVRVIAFNVL, INCRFMVCWA is higher in amyloid nucleation score: 6.864 ± 0.041 for the first, 9 ± 0.052 for the second.

Going from INCSAFNHCIYSSPT to INGWEPSIIDVIYNAHQIGP, the amyloid nucleation score falls from 2.82 ± 0.082 to 0.107 ± 0.79.

Compared with INLNNFLVLLLCKHRVVWKQ, INLYRSVGPKKWYTGEVLMA is lower in amyloid nucleation score: 1.48 ± 0.2 for the first, -0.137 ± 1.1 for the second.

INSVFNGIGRVYRHW and INVFGGHLMSYMKSISRVVC are within error of each other in amyloid nucleation score: -0.554 ± 1 for the first, -1.13 ± 0.64 for the second.

Compared with INWSHRGIISLDERMIIQYV, IPCTTSCVVQFCVTYWLDN is higher in amyloid nucleation score: 0.154 ± 0.65 for the first, 6.419 ± 0.029 for the second.

IPFLAVACLGDQWDD and IPGSS are within error of each other in amyloid nucleation score: 0.304 ± 0.18 for the first, -0.137 ± 0.54 for the second.

First: IPMHPLCGVRRNTELRVVEW
Second: IPNYLSYTWILYNYTFLGAC
The amyloid nucleation score of the first is higher: 1.78 ± 0.25 for the first, 0.719 ± 0.38 for the second.

Compared with IPSRAVVPFFLDLRPHADVS, IQEVRVACCWLIFRGCIRTA is higher in amyloid nucleation score: 0.25 ± 0.46 for the first, 4.1 ± 0.12 for the second.

First: IQINLLNSGYSFRLRASKFS
Second: IQSNAQESHNSNICESYNND
The amyloid nucleation score of the first is higher: 2.89 ± 0.075 for the first, -1.02 ± 0.62 for the second.

Going from IQTNVYWGISCCVSLSLSGL to IQVLVLPISYISIRGQKWRN, the amyloid nucleation score falls from 9.549 ± 0.022 to 7.19 ± 0.08.

Going from IRCCVQFIQLSQGNNVWVRS to IRESGVYTNLYSVVRVEEKT, the amyloid nucleation score falls from 6.07 ± 0.081 to 0.012 ± 0.38.

Compared with IRFDFSC, IRLLCHAVENCGTQRRLWGL is lower in amyloid nucleation score: 1.51 ± 0.17 for the first, 0.329 ± 0.6 for the second.

Compared with IRLVHSNVEIWGSDLVFHRG, IRMEFCDAMTICLLKQR is lower in amyloid nucleation score: 6.196 ± 0.04 for the first, 3.72 ± 0.056 for the second.

IRNQWMQVSQVFSVSRAVET and IRRGTYNFLMFQKDSFEYVS are within error of each other in amyloid nucleation score: 0.369 ± 0.3 for the first, 0.536 ± 0.62 for the second.

First: IRSFVSIRMFVCGRSDLRSN
Second: IRWCF
The amyloid nucleation score of the first is lower: -0.22 ± 1.1 for the first, 5.34 ± 0.09 for the second.

ISCSKMRRFWHL and ISERKCCKVLYISAIRVLNF are within error of each other in amyloid nucleation score: 0.587 ± 0.29 for the first, 0.034 ± 1.1 for the second.

ISFWGFYRFRYDMCRRVSDR and ISGSRWRLGAIVGTVVEAFG are within error of each other in amyloid nucleation score: -1.34 ± 0.78 for the first, -0.049 ± 0.76 for the second.

Going from ISINTICSNVDIGYGVAVFH to ISIVPYYNLGIGGRVTGSEA, the amyloid nucleation score falls from 3.92 ± 0.071 to 0.012 ± 0.3.

ISLNLVVN and ISLSHWGQTIPLRSFLLNRL are within error of each other in amyloid nucleation score: -0.272 ± 0.8 for the first, 0.432 ± 0.53 for the second.

First: ISTYSMYACFKMSL
Second: ISVGGLSHMGTVGSLMKVTQ
The amyloid nucleation score of the first is higher: 4.88 ± 0.1 for the first, -0.023 ± 0.29 for the second.

ISVRPAQSASRPCLDLWLKA and ISWVLRCQSKSRWLIQ are within error of each other in amyloid nucleation score: 1.55 ± 0.36 for the first, 0.627 ± 0.57 for the second.

Going from ITACCRSR to ITDGLYLTWGFDP, the amyloid nucleation score falls from 3.02 ± 0.062 to 0.931 ± 0.74.

ITFFLRDMIAC and ITGKTGVCSNNYTLKILGIV are within error of each other in amyloid nucleation score: -0.907 ± 1 for the first, -0.826 ± 0.33 for the second.

Going from ITIFTSWPVIMLETVMCYCN to ITMSQNSWNFRHDGTLVGLK, the amyloid nucleation score falls from 5.32 ± 0.079 to 0.377 ± 0.3.

ITPFHT and ITQRHSVNLNMMSLDLYTSS are within error of each other in amyloid nucleation score: -0.448 ± 0.3 for the first, 0.295 ± 1 for the second.

Compared with ITRSGWDFYLS, ITSFKWVLKGSWCKGRESKF is higher in amyloid nucleation score: 0.687 ± 0.49 for the first, 4.87 ± 0.068 for the second.

Going from IVARHPIGFQLVWGHWLTVA to IVCLAVSLSSDRTE, the amyloid nucleation score rises from 0.412 ± 0.26 to 6.599 ± 0.04.

First: IVDHVYCIVILDLEHFFYNE
Second: IVFSDLTITF
The amyloid nucleation score of the first is higher: 5.02 ± 0.083 for the first, 3.29 ± 0.11 for the second.

IVHILYECGAFRLPRGLY and IVHLSHQG are within error of each other in amyloid nucleation score: -0.538 ± 0.38 for the first, -1.25 ± 0.62 for the second.

First: IVLEMLKVTRVGPKQIGWPW
Second: IVLQSGR
The amyloid nucleation score of the first is higher: 0.696 ± 0.38 for the first, -1.12 ± 0.63 for the second.

Going from IVMFQNFVQMDVNYCCFLEV to IVNINYCFTFKVPNHNNSMK, the amyloid nucleation score rises from 6.768 ± 0.04 to 7.923 ± 0.04.

First: IVNTELVLVDKLDSCIVRYN
Second: IVPSQH
The amyloid nucleation score of the first is higher: 3.02 ± 0.17 for the first, 0.271 ± 0.44 for the second.

IVSSGPIKLNTSCFRTAYML and IVSVYATAIGGVRFRECCIG are within error of each other in amyloid nucleation score: -0.854 ± 0.63 for the first, -0.09 ± 0.34 for the second.

Compared with IVVRL, IVYFGQVIIFMVMSNSVCSL is lower in amyloid nucleation score: 0.639 ± 0.41 for the first, -1.38 ± 1 for the second.

IVYWSSEWRKPGAHDTLD and IWSQW are within error of each other in amyloid nucleation score: 0.451 ± 0.24 for the first, -0.134 ± 1.1 for the second.

In the case of ILSCRYHNYSQQLVK, the amyloid nucleation score is reported as “inactive”.
With INSPSYDNILMSTSSANMKR the amyloid nucleation score was “inactive”.
For IRDFYILAYRWLSQSHVMAN, the amyloid nucleation score was “inactive”.
In the case of ISSEHNAWYEVA, the amyloid nucleation score is reported as “inactive”.
In the case of ISWTPSGAIVVS, the amyloid nucleation score is reported as “inactive”.
In the case of IVIPSSK, the amyloid nucleation score is reported as “inactive”.
With IVTAVITM the amyloid nucleation score was “inactive”.
